The text below walks through data of patent US9259432B1, “Composition and methods for targeted delivery of a therapeutic compound to the brain or spinal cord of a subject for treatment of neurodegenerative diseases” (Parminder J. S. Vig, priority 2011, dated 2016).

Series [1] can be described thus: IgG levels in plasma by ELISA. In kind it is in vivo, mice. To be noted: 100 mg/kg, treated multiple times, no heat; samples diluted 1:50,000. How it is done: IgG levels in plasma of mice treated withof SynB1-ELP-GGC (100 mg/kg) and SynB1-ELP-TRTK (100 mg/kg) were obtained. Mice were treated multiple times without induction of hyperthermia. IgG levels were measured using ELISA. Samples were diluted 1:50,000 and compared against a standard curve generated using a mouse IgG standard.

In the next series the test system is SCA1/+ mice. As to the kind of experiment: Bar cross test. In kind it is in vivo. The note with it: IP, 10 doses every other day for 3 wks, with and without heat. The procedure: A minimum of five 2 wks old SCA1/+mice were treated IP with vehicle (saline), ELP-GGC or ELP-TRTK peptides multiple times (total 10 doses) every other day for 3 wks. Some animals were subjected to hyperthermia. After completion of the treatments, animals were subjected to behavioral tests.
Bar cross test. The bar-crossing apparatus for testing balance and fine motor coordination consisted of a horizontal U-shaped platform made of wood supported on 30 cm legs. The two parallel 30-cm-long bars of the U were wide enough (18 mm) for the mice to walk easily, whereas the piece connecting them, the challenge bar, was also 30 cm long but only 2 mm wide. Animals were placed on one of the wide bars and allowed to move about on the apparatus for 5 min. After the spontaneous activity portion of the bar cross test, animal were subjected to a forced task. In this task, the mice were placed in the middle of the challenge bar in order to force a crossing attempt. A maximum of 120 sec was allowed for mice to stay on the bar, and the latency to fall (on a padded surface; height=30 cm) or cross (Cross) successfully was measured in seconds. The surface of the apparatus was cleaned with mild soap solution and air-dried between mice. […]

Another series concerns the target T1, S100B (Homo sapiens, UniProt P04271).
T1 construct: purchased Sigma-Aldrich
T1 sequence (P04271 2-92 limits assumed): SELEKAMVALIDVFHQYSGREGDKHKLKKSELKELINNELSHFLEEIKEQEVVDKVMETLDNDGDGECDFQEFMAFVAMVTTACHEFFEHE
As to the kind of experiment: Thermal pull-down assay of ELP polypeptide with S100B. It counts as binding. To be noted: 60 μM polypeptide, western blot with S100B antibody. How it is done:
FIG. 9 is a blot showing that CPP-ELP-TRTK12 interacts with S100B protein in vitro. Solutions containing 60 μM Synb1-ELP-TRTK12 or Synb1-ELP were mixed with or without 1 μM S100B in PBS for 30 min at 37° C. The solutions were then incubated in a hot water bath maintained at 50° C. for 5 minutes to induce SynB1-ELP-TRTK12 aggregation. After heating, the solutions were centrifugated at 14,000 rpm to recover the ELP polypeptide aggregates (pellets). The ELP polypeptide pellets were washed 3 times with PBS and reheated and pelleted between washes. To assess ELP polypeptide-S100B interactions, the remaining ELP pellets were subjected to western blotting using a S100B antibody.
Shown are the turbidity assay results of various concentrations of (b) Synb1-ELP-GGC and (c) Synb1-ELP-TRTK heated from 25° C. to 75° C. […] (d) Shown is the thermal pull-down assay procedure, where a solution containing S100B and Synb1-ELP-TRTK protein are allowed to interact at 37° C. in a microcentrifuge tube. […] Once the supernatant is removed the protein pellet can be analyzed by western blotting techniques to reveal protein-protein interactions. […] Solutions containing 60 μM Synb1-ELP-TRTK or Synb1-ELP-GGC (control peptide) were mixed with or without 1 μM S100B and subjected to thermal pull-down assay procedure and analyzed by western blotting using an S100B antibody. […]

Take “Synb1-ELP-TRTK: thermally responsive S100B inhibitory polypeptide: Synb1 cell penetrating peptide, elastin-like polypeptide (ELP) and TRTK12 peptide fused”: the “IgG level in plasma, OD Value” in series [1] worked out at 0.2552. Moreover, the “hyperactivity, slip frequency, Sniff Up and down frequency” value in the series with SCA1/+ mice is “suppresses these activities”. Moreover, in the series with S100B (1 μM S100B in PBS, aggregation at 50° C.), the “interaction with S100B dimer and monomer (FIG. 9)” value is given as “strong interaction”. Besides, the “interaction with S100B (FIG. 11E)” value in the series with S100B (1 μM S100B, thermal cycling at 42° C.) is “bound both S100B monomers and dimers”.
